Experimental findings from US20040233833A1, “Methods for identifying compounds with thrapeutic potential for treatment of central Neurodegenerative diseases resulting from abnormal protein or peptide accumulation” (priority 2001, published 2004) are described below.

For assay [1], the target named is 20S proteasome (human red blood cell proteasomes) (human). Briefly: competition assay with REGα(N146Y)/REGβ(N135Y) as competitor for the proteasome.
The target is the same in assay [2]. Briefly: cell-based or functional assay.

Chain of REGγ (wild-type) (P61289 whole entry): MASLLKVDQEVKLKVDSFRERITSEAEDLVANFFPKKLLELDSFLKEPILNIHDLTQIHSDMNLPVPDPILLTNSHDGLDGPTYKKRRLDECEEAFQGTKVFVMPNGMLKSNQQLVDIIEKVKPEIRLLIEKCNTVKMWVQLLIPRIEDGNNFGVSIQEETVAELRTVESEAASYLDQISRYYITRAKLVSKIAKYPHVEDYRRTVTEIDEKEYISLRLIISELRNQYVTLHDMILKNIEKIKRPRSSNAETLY

For REGγ(K188I) (from UniProt P61289 1-254), in assay [1], the Relative affinity for proteasome (% of wild-type REGγ) came to 60.

In turn, REGγ(K188P) (from UniProt P61289 1-254) returned a Relative affinity for proteasome (% of wild-type REGγ) in assay [1] of 40.

In turn, REGγ(K188R) (from UniProt P61289 1-254) registered a Relative affinity for proteasome (% of wild-type REGγ) in assay [1] of 75.

In assay [2], “REGγ (wild-type) (from UniProt P61289 1-254)” came in with a half-life of the 49-residue peptide BBC1 with the proteasome of 45 min; a rate of CT/PGPH labeling by 125I-YL3-VS, fold over proteasome alone of 4.4 fold; a rate of T-subunit labeling by 125I-YL3-VS, fold over proteasome alone of 4.7 fold. Further, in assay [1], the Relative affinity for proteasome (% of wild-type REGγ) is 100.

The substance REGγ(K188N) (from UniProt P61289 1-254) had a Relative affinity for proteasome (% of wild-type REGγ) in assay [1] of 75.

In the case of REGγ(K188D) (from UniProt P61289 1-254), the Relative affinity for proteasome (% of wild-type REGγ) in assay [1] is 90.

Consider REGγ(K188A) (from UniProt P61289 1-254), for which, in assay [1], the Relative affinity for proteasome (% of wild-type REGγ) was 60.

For REGγ(K188H) (from UniProt P61289 1-254), the Relative affinity for proteasome (% of wild-type REGγ) in assay [1] was found to be 50.

For REGγ(K188E) (from UniProt P61289 1-254), in assay [2], the rate of CT/PGPH labeling by 125I-YL3-VS, fold over proteasome alone was 11.9 fold and the rate of T-subunit labeling by 125I-YL3-VS, fold over proteasome alone came out at 10.8 fold. The same substance returned a Relative affinity for proteasome (% of wild-type REGγ) in assay [1] of 90.

Consider REGγ(K188F) (from UniProt P61289 1-254), for which, in assay [1], the Relative affinity for proteasome (% of wild-type REGγ) was found to be 40.

In assay [1], REGα (from UniProt Q06323 1-249) showed a Relative affinity for proteasome (% of wild-type REGγ) of 0.

Take REGγ(K188C) (from UniProt P61289 1-254): in assay [1], the Relative affinity for proteasome (% of wild-type REGγ) was 60.

Substance REGγ(K188S) (from UniProt P61289 1-254) had a Relative affinity for proteasome (% of wild-type REGγ) in assay [1] of 50.

Substance REGγ(K188Q) (from UniProt P61289 1-254) came in with a Relative affinity for proteasome (% of wild-type REGγ) in assay [1] of 75.
